Measured values as given in publication PMC6327030, “Structure and inhibition mechanism of the catalytic domain of human squalene epoxidase” (Nature Communications, 2019).

What was measured:
[1] = substrate: CC(C)=CCC/C(C)=C/CC/C(C)=C/CC/C=C(\C)CC/C=C(\C)CCC=C(C)C; experiment: purified protein, by the assay type; conditions: varied squalene, saturating FAD
[2] = substrate: CC(C)=CCC/C(C)=C/CC/C(C)=C/CC/C=C(\C)CC/C=C(\C)CCC=C(C)C; experiment: cells, lysate or membranes named; conditions: other: SQLE baculosome; varied squalene, saturating FAD; pH 7.0

B1: recombinant N-terminally truncated SQLE (118–574) (Homo sapiens) (protein)
chain: TSSQNDPEVIIVGAGVLGSALAAVLSRDGRKVTVIERDLKEPDRIVGEFLQPGGYHVLKDLGLGDTVEGLDAQVVNGYMIHDQESKSEVQIPYPLSENNQVQSGRAFHHGRFIMSLRKAAMAEPNAKFIEGVVLQLLEEDDVVMGVQYKDKETGDIKELHAPLTVVADGLFSKFRKSLVSNKVSVSSHFVGFLMKNAPQFKANHAELILANPSPVLIYQISSSETRVLVDIRGEMPRNLREYMVEKIYPQIPDHLKEPFLEATDNSHLRSMPASFLPPSSVKKRGVLLLGDAYNMRHPLTGGGMTVAFKDIKLWRKLLKGIPDLYDDAAIFEAKKSFYWARKTSHSFVVNILAQALYELFSATDDSLHQLRKACFLYFKLGGECVAGPVGLLSVLSPNPLVLIGHFFAVAIYAVYFCFKSEPWITKPRALLSSGAVLYKACSVIFPLIYSEMKYMVH
With B1 the Km ([1]; other: SQLE (118–574), pH 8.0) was 1.9 ± 0.4 µM, the kcat ([1]; other: SQLE (118–574), pH 8.0) was 0.0348 s⁻¹ and the kcat/Km ([1]; other: SQLE (118–574), pH 8.0) was 18300 M⁻¹ s⁻¹.

B2: baculosome-derived full-length SQLE (Homo sapiens) (protein)
chain: MWTFLGIATFTYFYKKFGDFITLANREVLLCVLVFLSLGLVLSYRCRHRNGGLLGRQQSGSQFALFSDILSGLPFIGFFWAKSPPESENKEQLEARRRRKGTNISETSLIGTAACTSTSSQNDPEVIIVGAGVLGSALAAVLSRDGRKVTVIERDLKEPDRIVGEFLQPGGYHVLKDLGLGDTVEGLDAQVVNGYMIHDQESKSEVQIPYPLSENNQVQSGRAFHHGRFIMSLRKAAMAEPNAKFIEGVVLQLLEEDDVVMGVQYKDKETGDIKELHAPLTVVADGLFSKFRKSLVSNKVSVSSHFVGFLMKNAPQFKANHAELILANPSPVLIYQISSSETRVLVDIRGEMPRNLREYMVEKIYPQIPDHLKEPFLEATDNSHLRSMPASFLPPSSVKKRGVLLLGDAYNMRHPLTGGGMTVAFKDIKLWRKLLKGIPDLYDDAAIFEAKKSFYWARKTSHSFVVNILAQALYELFSATDDSLHQLRKACFLYFKLGGECVAGPVGLLSVLSPNPLVLIGHFFAVAIYAVYFCFKSEPWITKPRALLSSGAVLYKACSVIFPLIYSEMKYMVH
Protein B2 has a Km [2] of 3.3 ± 0.7 µM, a kcat [2] of 0.0233 s⁻¹ and a kcat/Km [2] of 7080 M⁻¹ s⁻¹.

B3: endogenous SQLE in human liver microsomes (Homo sapiens) (protein)
chain: B2 chain
B3 showed a Km ([1]; other: HLMs) of 2.9 ± 0.2 µM.
